Patent US20180334496A1 (KODIAK SCIENCES, published 2018)
Where a chain is given by its changes, count along the chain named.

B1: 54V / 101V (antibody, V domains shown)
VH: EVQLVESGGGLVQPGGSLRLSCAASGYTFTDYYMNWVRQAPGKGLEWIGDINPVTGDTSYNADFKRRFTFSLDTSKSTAYLQMNSLRAEDTAVYYCTREGPSFAYWGQGTLVTVSS
VL: DIQLTQSPSSLSASVGDRVTITCRSSQTIVHSNGDTYLEWYQQKPGKAPNLLIYKVSNRFSGVPSRFSGSGSGTDFTLTISSLQPEDFATYYCFQGSHVPVTFGQGTKVEIK
notes: KCD119 TAF variant; full antibody captured on protein A
B2: 31S54V59D / 54R101V (antibody, V domains shown)
VH: B1 VH with D31S, S59D
VL: DIQLTQSPSSLSASVGDRVTITCRSSQTIVHSNGDTYLEWYQQKPGKAPNLLIRKVSNRFSGVPSRFSGSGSGTDFTLTISSLQPEDFATYYCFQGSHVPVTFGQGTKVEIKR
notes: KCD119 TAF variant
B3: 54V59D / 54R101V (antibody, V domains shown)
VH: B1 VH with S59D
VL: B2 VL
notes: KCD119 TAF variant
B4: KCD001 (antibody, V domains shown)
VH: EVQLQQSGPELVKPGASVKISCKASDNSFTGYYMHWVKQSHGNILDWIGYIDPYNGVSSYNQKFKGKATLTVDKSSSTAYMEIRSLTSEDSAVYYCASYYGSSPYWYFDVWGTGTTVTVSS
VL: QIVLSQSPAILSASPGEKVTMTCRASSSVSYMHWYQQKPGSSPKPWIYATSNLASGVPARFSGSGSGTSHFLTISRLEAEDAATYFCQQWSSNPYTFGGGTKLEIK
B5: KCD005 (antibody, V domains shown)
VH: EVQLQQSGPELVKPGASVKISCKASGYTFTDHYMNWVKQSHGKSLEWIGDINPNNGGTSCNQKFKGKATLTVDKSSSTAYMELRSLTSGDSAVYYCTREGASFAFWGQGTLVTVSA
VL: DVLMTQTPLSLPVSLGDQASISCRSSQSIVHSNGDTYLEWYLQKPGQSPKLLIYKVSNRFSGVPDRFSGSGSGTDFTLKISRVEAEDLGVYYCFQGSHVPVTFGAGTKLELK
B6: KCD124 (antibody, V domains shown)
VH: B5 VH with C60Y
VL: B5 VL with V101L
B7: KCD010 (antibody, V domains shown)
VH: EVLLQQSGPELVKPGASVKIPCKASGYTFTDYDMDWVKQSHGKSLEWIGHINPNNGGTIYNQKFKGKATLTVDKSSSTAYMELRSLTSEDTAVYYCGTGDFAYWGHGTLVTVSA
VL: QIVLTQSPAIMSVSPGEKVTLTCSASSSVSSSYLYWYQKKPGSSPKLWIYSTSNLASGVPARFSGSGSGTSYSLTISSMEAEDAASYFCHQWSSYPPTFGAGTKLELK
B8: KCD023 (antibody, V domains shown)
VH: B7 VH with D33N, M34I, H50D, T58I, I59N, F101Y, H106Q
VL: B7 VL with I10F, V13A, K39Q, A61G, S93T
B9: KCD015 (antibody, V domains shown)
VH: EVQLQQSGAELVKPGASVKLSCTASGFNIKDTYMHWVKQRPEQGLEWIGRIDPANGYTEYDPKFQGKATITADTSSNTAYLQLSSLTSEDSAAYYCTSAMEFWGQGTSVTVSS
VL: QIVLTQSPAILSASPGEKVTMTCSASSSVSYIYWYQQKPRSSPRLLIYDTSNLASGVPVRFSGSGSGTSYSLTISRMEAEDAATYYCQQWSSYPFTFGGGTKLEVK
B10: KCD022 (antibody, V domains shown)
VH: DVQLQESGPDLVKPSQSLSLTCTVTGYSITSGYSWHWIRQFPGNTLEWMGYIHYSGSTNYNPSLESRISFTRDTSKNQFFLQLNSVTTEDTATYYCALHFYGYNLGWYFDVWGAGTTVTVSS
VL: DIVMTQSHKFMSTSIGDRVIITCKASQDVGTTVAWYQQRPGQSPKLLIYWASTRHTAVPDRFTGSGSGTDFTLTISNVQSEDLADYFCQQYTSYPLTFGAGTQLELK
B11: KCD112 (antibody, V domains shown)
VH: EVQLQQSGPELVKPGASVKISCKASGYSFTAYYMNWVKHSPEKSLEWIGDINPSTGGTTYNQKFKARATLTVDKSSSTAYMQLKSLTSEDSAVYYCATTYYSGNSYVGFAYWGQGTLVTVSA
VL: DIVMTQSHKFMSTSVGDRVSITCKASQDVSTAVAWYQQKPGQSPKLLIFWTSTRHTGVPDRFTGSGSGTDYTLTISSVQAEDLALYYCQQHYTTPWTFGGGTKLEIK
B12: KCD115 (antibody, V domains shown)
VH: B11 VH with A31G, H39Q, R67K, T99P, S102Y, N104S
VL: B11 VL with A34D, F49Y, T51A, T93S
B13: KCD129 (antibody, V domains shown)
VH: EVQLVESGGGLVQPKGSLKLSCAASGFSFNTYAMNWVRQAPGKGLEWVARIRSKSNNYATYYADSVKDRFTISRDDSESMVYLQMNNLKTEDTAMYYCVRHGYYWYFDVWGTGTTVTVSS
VL: B5 VL with N33D, D35N, K55R, V83M, V101Y, A105G, L111I
B14: KCD207 (antibody, V domains shown)
VH: B13 VH with E1A, I72L, V81L, H101Q, Y103F
VL: B5 VL with S28T, D35N, P45S, K55N, S68R, V101Y, A105S, L111I
B15: KCD229 (antibody, V domains shown)
VH: B13 VH with S73F, V81L
VL: B5 VL with T7N, D35N, K50N, K55N, S57F, V101Y, A105S, L111I
B16: KCD006 (antibody, V domains shown)
VH: B9 VH with N28K, Q39E, Y57N, E59K, S91T, A93V, T97A, S98N, E101D, F102Y
VL: B9 VL with V3I, L11M, S26R, Y31N, I32M, R40G, F95W, V105I
B17: KCD216 (antibody, V domains shown)
VH: QVHLQQSGPELVKPGASVKISCKASGYTFIDYYINWVKQRPGQGLEWIGWIFPGSDSTYYNEKFKGKATLTVDKSSSTAYMLLSSLTSEDSAVYFCARYGYYGSSFYAMDYWGQGTSVTVSS
VL: DIQMTQSPASLSVSVGETVTITCRASENIYSNLAWYQQKQGKSPQLLVYAATNLADGVPSRFSGSGSGTQYSLKINSLQSEDFGSYYCQHFWGTPPTFGGGSKLEIK
B18: KCD232 (antibody, V domains shown)
VH: B13 VH
VL: B5 VL with N33D, D35N, K55R, V83M, V101Y, A105G, L111I
B19: KCD111 (antibody, V domains shown)
VH: B4 VH with D26G, N27Y, G31D, T71S, K74Q, I83L, A97S, T116R
VL: B4 VL with A59T, H70Y, F71S, R76K, F86Y

target: T1, serum purified human Complement Factor D (human, UniProt P00746 26-253); experiment: SPR Biacore, antibody on protein A chip, single cycle kinetics, 37 C;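 further: antibodies captured on the protein A surface to roughly 70 RU in HBS-EP+ buffer, with rate and affinity constants fitted using BIAevaluation software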
T1 construct: Serum purified protein flowed over the captured antibodies; also called CFD; human CFD
T1 sequence (P00746 26-253): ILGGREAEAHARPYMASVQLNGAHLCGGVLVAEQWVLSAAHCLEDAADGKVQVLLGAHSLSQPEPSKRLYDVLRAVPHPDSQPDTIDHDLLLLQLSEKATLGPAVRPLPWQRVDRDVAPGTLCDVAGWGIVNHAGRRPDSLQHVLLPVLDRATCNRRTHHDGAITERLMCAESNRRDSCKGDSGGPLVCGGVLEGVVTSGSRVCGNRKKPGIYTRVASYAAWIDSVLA
Method: (§1) Antibodies were diluted to 0.5 ug/ml in HBS-EP+ buffer and captured on a protein A chip for 25 seconds to reach approximately 70 resonance units. […] Binding kinetic information was obtained by the BIAevaluation software (GE).

First: B1
Second: B2
The Kd of the first is 20-fold higher: 0.142 nM for the first, 0.00725 nM for the second. The second binds more tightly here.

Work on B3 yielded a Kd of 0.0154 nM.

Going from B1 to B2, the koff falls from 0.00158 s⁻¹ to 0.000242 s⁻¹ (6.5-fold).

Work on B3 yielded a koff of 0.00037 s⁻¹.

Going from B1 to B2, the kon rises from 1.11e+07 M⁻¹ s⁻¹ to 3.33e+07 M⁻¹ s⁻¹ (3-fold).

Binder B3 has a kon of 2.4e+07 M⁻¹ s⁻¹.

target: T2, human Complement Factor D (CFD), purified from human serum (human, UniProt P00746 26-253); experiment: SPR MX96, mAbs amine-coupled, CFD injected
T2 construct: serum purified (CompTech A136); also called serum purified CFD; hCFD-Comptech
T2 sequence (P00746 26-253): as above

First: B4
Second: B5
The Kd of the first is 6.2-fold lower: 0.225 nM for the first, 1.39 nM for the second.

B6 and B7 are within 1.5-fold of each other in Kd: 4.32 nM for the first, 3.05 nM for the second.

B8 and B9 are within 1.5-fold of each other in Kd: 5.29 nM for the first, 6.23 nM for the second.

Binder B10 has a Kd of 56.8 nM.

target: T1, serum purified human Complement Factor D; experiment: SPR Biacore, antibody on protein A chip, single cycle kinetics, 25 C;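 further: antibodies captured to roughly 70 RU on the protein A surface in HBS-EP+ running buffer, with kinetic constants derived by BIAevaluation fitting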
Method: as §1

Going from B1 to B2, the Kd falls from 0.0688 nM to 0.00394 nM (17-fold). The second binds more tightly here.

B3 gave a Kd of 0.0119 nM.

Compared with B1, B2 is 9-fold lower in koff: 0.000491 s⁻¹ for the first, 5.48e-05 s⁻¹ for the second.

Binder B3 has a koff of 0.000141 s⁻¹.

Going from B1 to B2, the kon rises from 7.14e+06 M⁻¹ s⁻¹ to 1.39e+07 M⁻¹ s⁻¹ (1.9-fold).

With B3 the kon was 1.19e+07 M⁻¹ s⁻¹.

target: T3, recombinant cynomolgus CFD, His-tagged (cynomolgus); experiment: SPR MX96
T3 construct: also called rcyCFD-His; recombinant Cyno-CFD

Going from B11 to B12, the Kd rises from 9.1 nM to 18 nM (2-fold). The first binds more tightly here.

Compared with B13, B14 is 4.3-fold lower in Kd: 6 nM for the first, 1.4 nM for the second. The second binds more tightly here.

First: B15
Second: B16
The Kd of the first is 94-fold lower: 1.6 nM for the first, 150 nM for the second. The first binds more tightly here.

Going from B17 to B18, the Kd falls from 13 nM to 5.5 nM (2.4-fold). The second binds more tightly here.

B19 showed a Kd of 7.2 nM.
